Results as given in US6670167.

How the values were obtained:
[1] = molecular target: T1, Syntide-2, synthetic substrate peptide PLARTLSVAGLPGKK
T1 chain: PLARTLSVAGLPGKK

[2] = molecular target: T2, Biotin-Syntide-2
T2 chain: KAGAGPLARTLSVAGLPGK

[3] = molecular target: T3, N-terminus acetylated Syntide-2
T3 chain: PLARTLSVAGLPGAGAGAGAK

B1: Kinase Domain Chk1 (1-289), C-terminally 6xHis-tagged (protein)
chain: MAVPFVEDWDLVGTLGEGAYGEVQLAVNRVTEEAVAVKIVDMKRAVDCPENIKKEICINKMLNHENVVKFYGHRREGNIQYLFLEYCSGGELFDRIEPDIGMPEPDAQRFFHQLMAGVVYLHGIGITHRDIKPENLLLDERDNLKISDFGLATVFRYNNRERLLNKMCGTLPYVAPELLKRREFHAEPVDVWSCGIVLTAMLAGELPWDQPSDSCQEYSDWKEKKTYLNPWKKIDSAPLALLHKILVENPSARITIPDIKKDRWYNKPLKKGAKRPRVTSGGVSESPSGHHHHHH
Rate/min (/min (at 7.3 nM enzyme)) [1]: 0.02 | Activity [2]: 67% | Activity [3]: 72%

B2: Full Length Chk1 (amino acids 1-476 of SEQ ID NO. 2), preparation HA2-013 (protein)
chain: MAVPFVEDWDLVGTLGEGAYGEVQLAVNRVTEEAVAVKIVDMKRAVDCPENIKKEICINKMLNHENVVKFYGHRREGNIQYLFLEYCSGGELFDRIEPDIGMPEPDAQRFFHQLMAGVVYLHGIGITHRDIKPENLLLDERDNLKISDFGLATVFRYNNRERLLNKMCGTLPYVAPELLKRREFHAEPVDVWSCGIVLTAMLAGELPWDQPSDSCQEYSDWKEKKTYLNPWKKIDSAPLALLHKILVENPSARITIPDIKKDRWYNKPLKKGAKRPRVTSGGVSESPSGFSKHIQSNLDFSPVNSASSEENVKYSSSQPEPRTGLSLWDTSPSYIDKLVQGISFSQPTCPDHMLLNSGLLGTPGSSQNPWQRLVKRMTRFFTKLDADKSYQCLKETCEKLQYQWKKSCMNQVTISTTDRRNNKLIFKVNLLEMDDKILVDFRLSKGDGLEFKRHFLKIKGKLIDIVSSQKVWLPATHHHHHH
Activity [1]: 1 (control) | Rate/min (/min (at 75 nM enzyme)) [1]: 0.019
